Data reported in patent publication US6379670B1, “Methods for treatment of multiple sclerosis using peptide analogs of human myelin basic protein” (Neurocrine Biosciences, Inc., priority 1994, dated 2002).

Columns and labels:
Format in all cases: cell-based, human
[1] = system: peripheral blood mononuclear cells; assay: Frequency of antigen-reactive T cells in PBMC of untreated MS patients and healthy donors (split-well); design: mean frequency of antigen-reactive T cells / frequency of antigen-reactive T cells in healthy subjects / antigen-reactive T cells, % Positive: concentration or dose not given beside the values
Procedure: Immune response to the peptide analog was assessed by measuring the frequency of proliferating peripheral blood T cells using a split-well microtiter method (i.e., number of positive wells {Δ cpm >1000, stimulation index>3} divided by the total number of wells assayed). Peripheral blood mononuclear cells (PBMC) were isolated from venous blood by Ficoll-Hypaque density gradient centrifugation, washed twice and resuspended in complete tissue culture medium (Iscove's modification of Dulbecco's medium containing 10% heat-inactivated, pooled, human A-B serum, 2 mM L-glutamine, 100 U/ml penicillin/streptomycin and 50 μg/ml gentamycin). PBMC from each patient were seeded at 10^5/well in 96 well, U-bottom microtiter plates containing 25 μg/ml whole MBP, 10 μg/ml NBI-5788 or medium alone in a volume of 200 μl. Three days later supernatants were collected and frozen at −80° C. and fresh medium containing IL-2 (10 U/ml) was added. IL-2-containg medium was refreshed on Day 7 and Day 11. On Day 14, the frequency of antigen response was determined by the “split well” technique. Briefly, cells from one primary well were split into replicate experimental wells in the presence of 10^5 freshly isolated autologous, irradiated peripheral blood mononuclear cells (APCs): one containing the original antigen (25 μg/ml) and one without antigen. Two days later supernatants were collected and the wells pulsed with 1 µCi/well [^3H]-thymidine ([…]) for the final 18 hours of culture. ^3H-Thymidine uptake was measured in a beta counter. […] The association between T cell frequency and NBI-5788 treatment was evaluated by χ^2 contingency analysis.

[2] = system: Dr2b-restricted T cell clone 5F6; assay: Cytokine production (TNF-α, IFN-γ) by T cell clone 5F6, EIA; settings: 3 μM MBP peptide, 24 hours, FIG. 21
Procedure: As discussed in detail below, the production of cytokines may also be assessed. In particular, TNF-α and IFN-γ production are especially interesting. These pro-inflammatory cytokines are thought to play a role in the pathogenesis of the disease. Briefly, T cell clone is incubated in the presence of stimulating MBP peptide and peptide analog or control peptide (SWM) or medium only. After a 24 hour incubation, the levels of TNF-α and IFN-γ in the supernatant are determined using commercially available EIA kits (Endogen, Cambridge, Mass.).
The ability of the peptide analog ligand to influence cytokine production was next measured. The Dr2b-restricted T cell clone 5F6 was incubated in the presence of 3 μM MBP peptide with either 10 μM of NBI-5788 (SEQ ID NO:7) or SWM or medium only. As a control, cells were cultured in the presence of medium alone. After 24 hours, supernatants were removed and the levels of tumor necrosis factor alpha (TNF-α) and interferon-y (IFN-γ) determined using commercially available EIA kits.

[3] = system: T cell lines LW 80, 88, 90 and 93; assay: Specificity and phenotype of APL-reactive T cell lines from patient; settings: 25 μg/ml antigen
Procedure: Four cell cultures from one patient ([…], 32% frequency) showing a response (> three-fold over background) were expanded into cell lines (LW 80, 88, 90 and 93) by incubation in IL-2 for 11-14 days (1-2 passages). Once sufficient cells had grown up, they were cultured with either medium alone or 25 μg/ml of either whole MBP, MBP (83-99) or APL NBI-5788. After 24 hours, the supernatants were collected and the level of cytokines determined (see FIGS. 22 to 26). The remaining cultures were pulsed with radiolabeled thymidine and the extent of incorporation determined.

[4] = system: NBI-5788-reactive or MBP-reactive T cell lines from MS patients; assay: Cross-reactivity of T cell lines (TCL) from MS patients, 3H-thymidine proliferation
Procedure: To evaluate the degree of NBI-5788-specific reactivity induced by NBI-5788 treatment, we determined whether NBI-5788-reactive T cell lines generated from untreated or NBI-5788-treated patients cross-reacted with whole MBP or MBP peptide 83-99. T cell lines were generated from positive cultures in the frequency analysis by an additional cycle of co-culture with antigen. Specificity of positive lines was tested by culturing 2×10^4 T cells/well in triplicate with whole MBP, MBP83-99, NBI-5788 or medium alone in the presence of 10^5 APCs in a final volume of 200 μl/well. Two days later supernatants were pooled from replicate wells and frozen at −80° C. Wells were then pulsed with [^3H]-thymidine (1 μCi/well) for the final 18 hours of culture.

[5] = subject MS-2, untreated MS patient
[6] = subject MS-3, untreated MS patient
[7] = subject MS-7, untreated MS patient
[8] = subject MS-8, untreated MS patient
[9] = subject MS-9, untreated MS patient
[10] = subject MS-10, untreated MS patient
[11] = subject MS-11, untreated MS patient
[12] = patient MS-1, dose 20 mg, TCL 4

B1: Whole MBP: whole human myelin basic protein (protein, UniProt P02686 1-304, looked up)
Myelin basic protein: MGNHAGKRELNAEKASTNSETNRGESEKKRNLGELSRTTSEDNEVFGEADANQNNGTSSQDTAVTDSKRTADPKNAWQDAHPADPGSRPHLIRLFSRDAPGREDNTFKDRPSESDELQTIQEDSAATSESLDVMASQKRPSQRHGSKYLATASTMDHARHGFLPRHRDTGILDSIGRFFGGDRGAPKRGSGKDSHHPARTAHYGSLPQKSHGRTQDENPVVHFFKNIVTPRTPPPSQGKGRGLSLSRFSWGAEGQRPGFGYGGRASDYKSAHKGFKGVDAQGTLSKIFKLGGRDSRSGSPMARR
- antigen-reactive T cells, Positive/total wells ([1]; Total of healthy donors): 3/96
- antigen-reactive T cells, Positive/total wells ([1]; Total of untreated MS patients): 56/312
- antigen-reactive T cells, % Positive ([1]; healthy donor HD-1): 6.3%
- antigen-reactive T cells, Positive/total wells ([1]; healthy donor HD-1): 3/48
- antigen-reactive T cells, % Positive ([1]; healthy donor HD-2): 0%
- antigen-reactive T cells, Positive/total wells ([1]; healthy donor HD-2): 0/48
- antigen-reactive T cells, % Positive [1, 5]: 6.8%
- antigen-reactive T cells, Positive/total wells [1, 5]: 3/44
- antigen-reactive T cells, % Positive [1, 6]: 25.0%
- antigen-reactive T cells, Positive/total wells [1, 6]: 11/44
- antigen-reactive T cells, % Positive [1, 7]: 11.4%
- antigen-reactive T cells, Positive/total wells [1, 7]: 5/44
- antigen-reactive T cells, % Positive [1, 8]: 52.3%
- antigen-reactive T cells, Positive/total wells [1, 8]: 23/44
- antigen-reactive T cells, % Positive [1, 9]: 16.7%
- antigen-reactive T cells, Positive/total wells [1, 9]: 8/48
- antigen-reactive T cells, % Positive [1, 10]: 2.3%
- antigen-reactive T cells, Positive/total wells [1, 10]: 1/44
- antigen-reactive T cells, % Positive [1, 11]: 11.4%
- antigen-reactive T cells, Positive/total wells [1, 11]: 5/44
- frequency of antigen-reactive T cells in healthy subjects ([1]; two healthy subjects, MBP-reactive cells detected in one of two): 6.3%
- mean frequency of antigen-reactive T cells ([1]; untreated MS patients (n=7)): 18.0±6.3%
- IFN-γ production [2]: ~160 pg/mL
- thymidine incorporation of T cell line ([3]; Line 80 of patient): 1,457 ± 195 cpm
- thymidine incorporation of T cell line ([3]; Line 88 of patient): 977 ± 121 cpm
- thymidine incorporation of T cell line ([3]; Line 90 of patient): 1,604 ± 328 cpm
- thymidine incorporation of T cell line ([3]; Line 93 of patient): 630 ± 28 cpm
- proliferative response of MBP-reactive TCL to antigen ([4]; patient MS-1, dose 20 mg, TCL 2): 25,700 ± 5,266
- proliferative response of MBP-reactive TCL to antigen [4, 12]: 9,498 ± 745
- proliferative response of NBI-5788-reactive TCL to antigen [4, 12]: 772 ± 341
- proliferative response of MBP-reactive TCL to antigen ([4]; patient MS-1, dose 20 mg, TCL 5): 13,102 ± 1,286
- proliferative response of MBP-reactive TCL to antigen ([4]; patient MS-1, dose 20 mg, TCL 10): 54,562 ± 207
- proliferative response of MBP-reactive TCL to antigen ([4]; patient MS-1, dose 20 mg, TCL 14): 23,564 ± 854
- proliferative response of MBP-reactive TCL to antigen ([4]; patient MS-1, dose 20 mg, TCL 26): 48,157 ± 1,207
- proliferative response of NBI-5788-reactive TCL to antigen ([4]; patient MS-1, dose 20 mg, TCL 36): 2,515 ± 532
- proliferative response of MBP-reactive TCL to antigen ([4]; patient MS-1, dose 20 mg, TCL 45): 63,810 ± 1,117
- proliferative response of MBP-reactive TCL to antigen ([4]; patient MS-2, dose 20 mg, TCL 14): 16,000 ± 1,133
- proliferative response of MBP-reactive TCL to antigen ([4]; patient MS-3, Pretreat., TCL 9): 9,736 ± 247
- proliferative response of NBI-5788-reactive TCL to antigen ([4]; patient MS-3, dose 20 mg, TCL 2): 1,785 ± 66
- proliferative response of NBI-5788-reactive TCL to antigen ([4]; patient MS-3, dose 20 mg, TCL 4): 298 ± 41
- proliferative response of NBI-5788-reactive TCL to antigen ([4]; patient MS-3, dose 20 mg, TCL 18): 437 ± 191
- proliferative response of NBI-5788-reactive TCL to antigen ([4]; patient MS-3, dose 20 mg, TCL 30): 557 ± 210
- proliferative response of MBP-reactive TCL to antigen ([4]; patient MS-4, dose 20 mg, TCL 7): 5,308 ± 1,269
- proliferative response of NBI-5788-reactive TCL to antigen ([4]; patient MS-4, dose 20 mg, TCL 18): 5,983 ± 5602
- proliferative response of NBI-5788-reactive TCL to antigen ([4]; patient MS-5, dose 20 mg, TCL 15): 13,151 ± 9,967
- proliferative response of NBI-5788-reactive TCL to antigen ([4]; patient MS-5, dose 20 mg, TCL 39): 6,717 ± 558
- proliferative response of NBI-5788-reactive TCL to antigen ([4]; patient MS-5, dose 20 mg, TCL 43): 3,584 ± 1,068
- proliferative response of NBI-5788-reactive TCL to antigen ([4]; patient MS-6, dose 10 mg, TCL 22): 2,167 ± 53
- proliferative response of NBI-5788-reactive TCL to antigen ([4]; patient MS-6, dose 10 mg, TCL 38): 935 ± 65
- proliferative response of NBI-5788-reactive TCL to antigen ([4]; patient MS-7, dose 5 mg, TCL 12): 1,343 ± 498
- proliferative response of NBI-5788-reactive TCL to antigen ([4]; patient MS-7, dose 5 mg, TCL 28): 2,326 ± 1,300
- proliferative response of MBP-reactive TCL to antigen ([4]; patient MS-7, dose 5 mg, TCL 46): 17,019 ± 2,294
- proliferative response of MBP-reactive TCL to antigen ([4]; patient MS-8, Placebo, TCL 26): 68,704 ± 19,348
- proliferative response of MBP-reactive TCL to antigen ([4]; patient MS-8, Placebo, TCL 28): 47,279 ± 4,539
- proliferative response of MBP-reactive TCL to antigen ([4]; patient MS-8, Placebo, TCL 38): 63,253 ± 5,006
- proliferative response of MBP-reactive TCL to antigen ([4]; patient MS-8, Pretreat., TCL 22): 91,447 ± 3,378
- proliferative response of MBP-reactive TCL to antigen ([4]; patient MS-8, Pretreat., TCL 31): 7,379 ± 123
- proliferative response of MBP-reactive TCL to antigen ([4]; patient MS-8, Pretreat., TCL 47): 47,975 ± 10,326
